{"source": "paper PMC8575140", "about": "(bioRxiv, 2021)", "binders": {"B1": {"name": "NCI-CoV-1B5 VHH (VHH)", "VHH": "DVQLVESGGGSVQAGGSLRLSCTGSRYTYSTYCMGWFRQAPGKEEEAVAIINSGGGEPYYGDSVKGRFTISQDRAKNTVYLQMDGLQPDDTAIYYCVAADSHNSRCYLGRSYVNYWGQGTQVTVSS"}}, "target": "SARS-CoV-2 receptor-binding domain (SARS-CoV-2, UniProt P0DTC2)"}
{"binder": "B1", "values": [{"measurement": "IC50", "result": 3.2, "unit": "nM"}]}
